Paper PMC5465077

Biological target: Her2 on SKBR3 cells (human (endogenous in SKBR3)) (UniProt P04626)
Assay: flow cytometry on cells; 200,000 SKBR3 cells per sample incubated on ice for 60 min with serial dilutions of antibody or ADC in FACS buffer (DPBS, 1% BSA); detected with Alexa 647 goat anti-human IgG; mean fluorescence intensities fitted with a one-site specific binding equation

Kd: 7.6 nM
Substance: Trastuzumab^CF MMAF (AB4285) LC-S7 (antibody)
